The values below come from the supplement of paper PMC7125110.

The labels stand for the following.
B1: glmS ribozyme (parent)
chain: AUAAAAGCGCCAGAACUACAGAAAUGUAGUUGACGAGGAGGAGGUUUAUCGAAUUUUCGGCGGAUGCCUCCAAA

Conditions in all cases: with glucosamine-6-phosphate
Data set [1] covers variants of B1. Put plainly: kcat; higher = faster cleavage; RNA array. In outline:
(§1)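 Barcoded ribozyme variants on sequenced MiSeq chips were transcribed in situ by E. coli RNA polymerase and followed at 37 °C through a hybridised Cy3 probe. Glucosamine-6-phosphate at 40 μM to 10 mM in HEPES/KCl/Mg(OAc)2 buffer was flowed in, and tiles were imaged over ~14 h. Signals were normalised to baseline and to non-cleaving reference variants, and per-tile medians were fit to one- or two-exponential decays to give kobs. Weighted Michaelis–Menten fits across concentrations gave kcat and KM.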

The variants in data set [2] derive from B1. Put plainly: KM; higher = weaker cofactor use; RNA array. In outline:
as §1

The variants in data set [3] derive from B1. Put plainly: self-cleavage kobs at 640 uM GlcN6P; higher = faster cleavage; RNA array. In outline: as §1
In data set [4] the parent is B1. Kind of data set: self-cleavage kobs at 2500 uM GlcN6P; higher = faster cleavage; RNA array. In outline:
as §1

The variants in data set [5] derive from B1. Kind of data set: self-cleavage kobs at 10000 uM GlcN6P; higher = faster cleavage; RNA array. In outline:
as §1

In data set [6] the parent is B1. Put plainly: self-cleavage kobs at 160 uM GlcN6P; higher = faster cleavage; RNA array. In outline: as §1
In data set [7] the parent is B1. Kind of data set: self-cleavage kobs at 40 uM GlcN6P; higher = faster cleavage; RNA array. In outline:
as §1

± gives the standard error. For some of these results: Fewer inactive variants are shown than the library holds.

As a reminder, the kcat is the maximal rate divided by the concentration of active sites. The KM is the concentration of substrate that gives half-maximal velocity.

On to G32U G66A, for which the kcat in the data set with glucosamine-6-phosphate [1] worked out at 0.000468 ± 5.1e-05 s⁻¹. Also, in the data set with glucosamine-6-phosphate [2], the KM was 3020 ± 560 µM. Further, the “self-cleavage kobs at 640 uM GlcN6P” value with glucosamine-6-phosphate [3] is 8.47e-05 ± 1e-05 s⁻¹. Also, in the data set with glucosamine-6-phosphate [4], the “self-cleavage kobs at 2500 uM GlcN6P” value came out at 0.00021 ± 2.9e-05 s⁻¹. For the same variant, the “self-cleavage kobs at 10000 uM GlcN6P” value with glucosamine-6-phosphate [5] came out at 0.000358 ± 4.3e-05 s⁻¹.
As to C16G C68U, in the data set with glucosamine-6-phosphate [1], the kcat stood at 0.000168 ± 6e-06 s⁻¹. The KM with glucosamine-6-phosphate [2] stood at 778 ± 79 µM. The “self-cleavage kobs at 160 uM GlcN6P” value with glucosamine-6-phosphate [6] was 3.33e-05 ± 1.5e-05 s⁻¹. Moreover, the “self-cleavage kobs at 640 uM GlcN6P” value with glucosamine-6-phosphate [3] turned out to be 7.49e-05 ± 1.2e-05 s⁻¹. In addition, the “self-cleavage kobs at 2500 uM GlcN6P” value with glucosamine-6-phosphate [4] stood at 0.000125 ± 1.6e-05 s⁻¹. Besides, in the data set with glucosamine-6-phosphate [5], the “self-cleavage kobs at 10000 uM GlcN6P” value worked out at 0.00016 ± 2.3e-05 s⁻¹.
As for A6U G51A C71A, the kcat with glucosamine-6-phosphate [1] was 5.19e-05 ± 1.7e-05 s⁻¹.
With G29U C58U, in the data set with glucosamine-6-phosphate [1], the kcat stood at 0.000107 ± 1.1e-05 s⁻¹. Besides, the KM with glucosamine-6-phosphate [2] turned out to be 3710 ± 980 µM. Further, in the data set with glucosamine-6-phosphate [4], the “self-cleavage kobs at 2500 uM GlcN6P” value worked out at 4.57e-05 ± 9.1e-06 s⁻¹. For the same variant, the “self-cleavage kobs at 10000 uM GlcN6P” value with glucosamine-6-phosphate [5] was found to be 7.71e-05 ± 8.8e-06 s⁻¹.
Turning to A42U C50G, in the data set with glucosamine-6-phosphate [1], the kcat was below 1e-05 s⁻¹. In addition, in the data set with glucosamine-6-phosphate [7], the “self-cleavage kobs at 40 uM GlcN6P” value is below 1e-05 s⁻¹. The “self-cleavage kobs at 10000 uM GlcN6P” value with glucosamine-6-phosphate [5] is below 1e-05 s⁻¹.
Regarding U30A U65A, in the data set with glucosamine-6-phosphate [1], the kcat is 0.000636 ± 0.00012 s⁻¹. The KM in the data set with glucosamine-6-phosphate [2] is 2480 ± 800 µM. In addition, in the data set with glucosamine-6-phosphate [6], the “self-cleavage kobs at 160 uM GlcN6P” value was found to be 5.83e-05 ± 2e-05 s⁻¹. Further, the “self-cleavage kobs at 640 uM GlcN6P” value in the data set with glucosamine-6-phosphate [3] is 0.000114 ± 2.4e-05 s⁻¹. The “self-cleavage kobs at 2500 uM GlcN6P” value with glucosamine-6-phosphate [4] was determined as 0.000384 ± 8.4e-05 s⁻¹. Moreover, the “self-cleavage kobs at 10000 uM GlcN6P” value in the data set with glucosamine-6-phosphate [5] was 0.000495 ± 8.6e-05 s⁻¹.
For the variant G13C A53C, the kcat with glucosamine-6-phosphate [1] was 2.72e-05 ± 1.4e-06 s⁻¹. For the same variant, the Michaelis-Menten constant (KM) in the data set with glucosamine-6-phosphate [2] is 802 ± 260 µM. Also, in the data set with glucosamine-6-phosphate [7], the “self-cleavage kobs at 40 uM GlcN6P” value was below 1e-05 s⁻¹. The “self-cleavage kobs at 160 uM GlcN6P” value in the data set with glucosamine-6-phosphate [6] is below 1e-05 s⁻¹. For the same variant, in the data set with glucosamine-6-phosphate [5], the “self-cleavage kobs at 10000 uM GlcN6P” value was determined as 2.49e-05 ± 1.2e-05 s⁻¹.
C50A C58U: the kcat with glucosamine-6-phosphate [1] stood at 1.33e-05 ± 5.8e-06 s⁻¹. For the same variant, in the data set with glucosamine-6-phosphate [3], the “self-cleavage kobs at 640 uM GlcN6P” value was below 1e-05 s⁻¹.
For C34A U45A G51U, the kcat in the data set with glucosamine-6-phosphate [1] stood at 0.000482 ± 0.00015 s⁻¹. Besides, the “self-cleavage kobs at 640 uM GlcN6P” value with glucosamine-6-phosphate [3] was 0.000198 ± 5.3e-05 s⁻¹. Besides, the “self-cleavage kobs at 2500 uM GlcN6P” value with glucosamine-6-phosphate [4] was found to be 0.000272 ± 0.0001 s⁻¹. For the same variant, the “self-cleavage kobs at 10000 uM GlcN6P” value in the data set with glucosamine-6-phosphate [5] was found to be 0.00041 ± 0.00016 s⁻¹.
As for G9A G37U C70G, in the data set with glucosamine-6-phosphate [1], the kcat is 1.52e-05 ± 2.5e-06 s⁻¹. Further, the “self-cleavage kobs at 2500 uM GlcN6P” value with glucosamine-6-phosphate [4] is below 1e-05 s⁻¹.
Regarding A14U A36C C50U, in the data set with glucosamine-6-phosphate [1], the kcat is 1.43e-05 ± 5.6e-06 s⁻¹.
U47C U56C: in the data set with glucosamine-6-phosphate [1], the kcat was 0.00115 ± 0.00017 s⁻¹. For the same variant, the KM in the data set with glucosamine-6-phosphate [2] came out at 1940 ± 650 µM. Further, the “self-cleavage kobs at 640 uM GlcN6P” value with glucosamine-6-phosphate [3] amounted to 0.000323 ± 7.3e-05 s⁻¹. Besides, in the data set with glucosamine-6-phosphate [4], the “self-cleavage kobs at 2500 uM GlcN6P” value is 0.00061 ± 0.00012 s⁻¹. Also, the “self-cleavage kobs at 10000 uM GlcN6P” value with glucosamine-6-phosphate [5] was found to be 0.000972 ± 0.00016 s⁻¹.
Consider A39G U69G, for which, in the data set with glucosamine-6-phosphate [1], the turnover number (kcat) turned out to be 0.000101 ± 1.5e-05 s⁻¹. The “self-cleavage kobs at 40 uM GlcN6P” value in the data set with glucosamine-6-phosphate [7] was determined as 4.07e-05 ± 1.3e-05 s⁻¹. For the same variant, the “self-cleavage kobs at 160 uM GlcN6P” value with glucosamine-6-phosphate [6] was 0.000114 ± 3.2e-05 s⁻¹. For the same variant, the “self-cleavage kobs at 640 uM GlcN6P” value with glucosamine-6-phosphate [3] is 7.75e-05 ± 1.3e-05 s⁻¹. Further, in the data set with glucosamine-6-phosphate [4], the “self-cleavage kobs at 2500 uM GlcN6P” value turned out to be 0.000143 ± 1.7e-05 s⁻¹. Moreover, in the data set with glucosamine-6-phosphate [5], the “self-cleavage kobs at 10000 uM GlcN6P” value worked out at 9.32e-05 ± 1e-05 s⁻¹.
Consider A52U C70G, for which, in the data set with glucosamine-6-phosphate [1], the kcat was determined as 7.01e-05 ± 1.1e-05 s⁻¹. Also, in the data set with glucosamine-6-phosphate [3], the “self-cleavage kobs at 640 uM GlcN6P” value is 5.38e-05 ± 1.1e-05 s⁻¹. Besides, the “self-cleavage kobs at 2500 uM GlcN6P” value with glucosamine-6-phosphate [4] came to 8.15e-05 ± 8.6e-06 s⁻¹. Moreover, the “self-cleavage kobs at 10000 uM GlcN6P” value with glucosamine-6-phosphate [5] turned out to be 5.93e-05 ± 7.6e-06 s⁻¹.
As to A15U A52C, in the data set with glucosamine-6-phosphate [1], the kcat is below 1e-05 s⁻¹. The KM with glucosamine-6-phosphate [2] was found to be 537 ± 110 µM. Also, the “self-cleavage kobs at 40 uM GlcN6P” value with glucosamine-6-phosphate [7] is below 1e-05 s⁻¹. In the data set with glucosamine-6-phosphate [6], the “self-cleavage kobs at 160 uM GlcN6P” value was below 1e-05 s⁻¹. Moreover, in the data set with glucosamine-6-phosphate [3], the “self-cleavage kobs at 640 uM GlcN6P” value is below 1e-05 s⁻¹.
With G21A C58G U69G C71U, in the data set with glucosamine-6-phosphate [1], the kcat came out at 4e-05 ± 1e-05 s⁻¹. Also, the “self-cleavage kobs at 160 uM GlcN6P” value in the data set with glucosamine-6-phosphate [6] came out at 5.48e-05 ± 1.6e-05 s⁻¹. In the data set with glucosamine-6-phosphate [3], the “self-cleavage kobs at 640 uM GlcN6P” value turned out to be 4.19e-05 ± 1.7e-05 s⁻¹. In addition, the “self-cleavage kobs at 2500 uM GlcN6P” value with glucosamine-6-phosphate [4] was determined as 3.42e-05 ± 1.6e-05 s⁻¹.
A14C A39G: the kcat in the data set with glucosamine-6-phosphate [1] amounted to 0.0127 ± 0.0026 s⁻¹. Further, the KM in the data set with glucosamine-6-phosphate [2] was determined as 3770 ± 970 µM. The “self-cleavage kobs at 40 uM GlcN6P” value with glucosamine-6-phosphate [7] was found to be 0.000147 ± 1.6e-05 s⁻¹. For the same variant, the “self-cleavage kobs at 160 uM GlcN6P” value with glucosamine-6-phosphate [6] was found to be 0.000352 ± 0.00017 s⁻¹. The “self-cleavage kobs at 640 uM GlcN6P” value in the data set with glucosamine-6-phosphate [3] stood at 0.00155 ± 0.0003 s⁻¹. The “self-cleavage kobs at 2500 uM GlcN6P” value with glucosamine-6-phosphate [4] is 0.0051 ± 0.00078 s⁻¹. Also, the “self-cleavage kobs at 10000 uM GlcN6P” value with glucosamine-6-phosphate [5] was 0.0095 ± 0.0016 s⁻¹.
In the case of G43A A53C, the kcat in the data set with glucosamine-6-phosphate [1] amounted to 6.63e-05 ± 3.6e-06 s⁻¹. Further, the “self-cleavage kobs at 160 uM GlcN6P” value with glucosamine-6-phosphate [6] is below 1e-05 s⁻¹. Moreover, the “self-cleavage kobs at 640 uM GlcN6P” value in the data set with glucosamine-6-phosphate [3] was below 1e-05 s⁻¹.
